The values that follow come from patent publication US6316596A, “Receptor for peptide hormones involving in energy homeostasis” (The Rockefeller University, priority 1998, dated 2001).

Experiment [1] has as its target T1, recombinant human PACAP/VIP R-2 receptor (Homo sapiens, UniProt P41587).
T1 construct: expressed in transfected cells
T1 sequence (P41587 24-438 R412H/G424A): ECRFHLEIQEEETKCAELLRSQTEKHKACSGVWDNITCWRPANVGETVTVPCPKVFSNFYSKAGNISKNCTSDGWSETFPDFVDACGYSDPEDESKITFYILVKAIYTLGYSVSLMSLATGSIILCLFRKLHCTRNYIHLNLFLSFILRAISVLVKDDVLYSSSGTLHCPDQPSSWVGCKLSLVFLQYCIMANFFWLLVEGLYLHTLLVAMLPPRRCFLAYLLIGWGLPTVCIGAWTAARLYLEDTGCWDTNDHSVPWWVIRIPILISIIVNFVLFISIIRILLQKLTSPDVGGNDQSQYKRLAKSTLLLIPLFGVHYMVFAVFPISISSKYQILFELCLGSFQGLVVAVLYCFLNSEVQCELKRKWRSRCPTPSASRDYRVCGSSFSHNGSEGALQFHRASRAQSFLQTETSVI
Put plainly: stimulation of intracellular cAMP in cells expressing recombinant receptor. The class given is cell-based. Conditions: FIG. 2B; for stimulation of intracellular cAMP formation (in words) / peptide concentration at maximum stimulation of cAMP levels: CHL cells; for stimulation of intracellular cAMP formation (in words): 45 minutes at 37° C., secretin, glucagon, GLP-I and GLP-II at μM concentrations.
Excerpt: Data points represent an average of two separate determinations (n=6), except for secretin (n=3) (see Materials and Methods). The variation among individual points was 5%.

Experiment [2] has as its target T1, recombinant human PACAP/VIP R-2 receptor. The experiment is described as follows: competitive binding with 125I-VIP, CHL cells expressing recombinant receptor.
Description: Data points represent an average of two separate experiments (n=6). The variation among individual points was 10% (see Materials and Methods).
Each peptide concentration prepared in Hfank's balanced salt solution containing 20 mM HEPES, pH 7.4, 0.5% BSA and 0.1 mM phenylmethylsulfonyl-fluoride (PMSF) was added in triplicates to intact cells. Following the incubation, the cells were washed two times with ice-cold PBS, lysed with 1 N NaOH, and radioactivity measured in gamma counter. […] The variation among triplicate values was 10%.
Experiment [3] has as its system insulin secretion. Conditions: Yada et al., 1994; cited from earlier work.
Experiment [4] relates to CHL cells transfected with vector alone. Put plainly: intracellular cAMP in CHL cells transfected with vector alone. The class given is cell-based, Chinese hamster. As to conditions: 1.1 μM; data not shown. The method, then:
Cells were grown in 24-well plates to about 50% confluence. They were washed twice with the incubation buffer (Macy's 5A pH 7.4, containing 20 mM HEPES, 0.5% BSA and 0.5 mM IBMX) and incubated with different concentration of synthetic peptides added in triplicates (μM-pM) for 45 minutes at 37° C. In each experiment forskolin (10 μM, Sigma, St. Louis, Mo.) was added as a positive control. After removal of the medium, cells were washed twice with PBS and lysed with 95% ethanol. The suspension was centrifuged at 13,000 rpm for 3 minutes, and supernatants were taken to dryness in a speed vacuum. The contents were reconstituted in 0.05 M acetate buffer (0.5 ml) and cAMP levels measured using the cAMP Biotrak SPA system (Amersham, Arlington Heights, Ill.). The variation among triplicate values was 5%. The data shown in FIG. 2B are average of two separate incubations (n=6), except for secretin (n=3).

In experiment [5] the test system is CHL cells transfected with the vector alone. The experiment is described as follows: binding of 125I-VIP to CHL cells transfected with vector alone. Conditions: data not shown. Details: species or system Chinese hamster. As for the experimental part: Stable transformants were selected in the presence of G418 (0.8 mg/ml, GIBCO/BRL, Gaithersburg, Md.). […] Each peptide concentration prepared in Hfank's balanced salt solution containing 20 mM HEPES, pH 7.4, 0.5% BSA and 0.1 mM phenylmethylsulfonyl-fluoride (PMSF) was added in triplicates to intact cells. Following the incubation, the cells were washed two times with ice-cold PBS, lysed with 1 N NaOH, and radioactivity measured in gamma counter. […] The maximum specific binding was 5%. The variation among triplicate values was 10%.

[6] abbreviates: 125I-VIP 44 pM, whole CHL cells.

“Also recorded” adds a separate entry of the source.

With glucagon-like peptide-II [GLP-II], the “stimulation of intracellular cAMP formation (in words)” value (from here on “stimulation … (in words)”) in experiment [1] is “did not show any stimulation”. Moreover, the “displacement of 125I-VIP binding (in words)” value (“displacement” below) in experiment [2] (setting [6]) is listed as “did not displace this binding”.
For PACAP-27, in experiment [1], the “stimulation … (in words)” value was “stimulated intracellular cAMP formation in a dose dependent manner” and the “peptide concentration at maximum stimulation of cAMP levels” value was found to be 100 nM. Also, in experiment [2] (setting [6]), the “displacement” value is recorded as “complete displacement of ^125 I-VIP binding to the recombinant PACAP/VIP R-2 was not obtainable at high PACAP-27 concentration”. The IC50 in experiment [2] (read-out: ID50, displacement of 125I-VIP binding, 125I-VIP 44 pM, whole CHL cells, 15-18 hour at 4° C., VIP and PACAP-27 values estimated (incomplete displacement)) was 37 nM.
For glucagon: glucagon, in experiment [1], the “stimulation … (in words)” value is listed as “did not show any stimulation”. Further, the “displacement” value in experiment [2] (setting [6]) was “did not displace this binding”.
For the substance “secretin: synthetic secretin purchased from Peninsula; high sequence homology to PACAP and VIP”, in experiment [1], the “stimulation … (in words)” value was “Some increase of intracellular cAMP levels”. In addition, the “high concentration at which 125I-VIP binding was displaced” value in experiment [2] (125I-VIP, FIG. 2A) is 3.8 µM.
With “PACAP-38: 38-amino acid form of pituitary adenylate cyclase activating polypeptide; synthetic, purchased from Peninsula”, the “cAMP response at supraphysiological concentration” value in experiment [1] (1 μM PACAP-38) is reported as “sharp drop to baseline levels”. In experiment [1], the “stimulation … (in words)” value was “stimulated intracellular cAMP formation in a dose dependent manner” and the “peptide concentration at maximum stimulation of cAMP levels” value is listed as 100 nM. Further, in experiment [2] (setting [6]), the “displacement” value is on record as “displaced in a dose dependent manner”. Also, the “relative affinity for the receptor (in words)” value in experiment [2] (competitive binding, whole cells) is reported as “higher affinity than PACAP-27; also recorded: slightly higher affinity for PACAP-38 than for VIP”. The “stimulation of insulin secretion” value in experiment [3] is on record as “ability to stimulate insulin secretion”. The “change of intracellular cAMP in vector-transfected cells” value in experiment [4] was “No change of intracellular cAMP was detected”.
Take “125I-VIP: radioiodinated VIP (2000 Ci/mmol, Amersham)”: the “binding of 125I-VIP to vector-transfected cells” value in experiment [5] is listed as “did not bind”.
As to glucagon-like peptide-I [GLP-I], in experiment [1], the “stimulation … (in words)” value is recorded as “did not show any stimulation”. The “displacement” value in experiment [2] (setting [6]) is “did not displace this binding”.
